{"source": "paper PMC3688963", "about": "“Biochemical Characterization of Hypothetical Proteins from Helicobacter pylori” (PLoS ONE, 2013)", "system": "CC(=O)Oc1ccc([N+](=O)[O-])cc1", "assay": "purified protein", "details": "100 mM sodium acetate pH 6.0, 30°C"}
{"substance": "HP0310 (Helicobacter pylori 26695)", "values": [{"measurement": "Km", "result": "180 ± 50", "unit": "µM"}, {"measurement": "Vmax", "result": 37400, "unit": "µM/min"}, {"measurement": "kcat", "result": "20.1 ± 0.917", "unit": "s⁻¹"}, {"measurement": "kcat/Km", "result": 112000, "unit": "M⁻¹ s⁻¹"}]}
